For data set [1], the system named is quenched fluorogenic peptide of the human CD28 stalk region (WT).
The test system of data set [2] is c-Myc conjugated and biotinylated human CD28 stalk region dimeric peptide (wild-type).
For data set [3], the system named is quenched fluorogenic peptide of the human CD28 stalk region with L145K.

c-Myc conjugated and biotinylated human CD28 stalk region dimeric peptide (wild-type), sequence (chain, as listed by the source): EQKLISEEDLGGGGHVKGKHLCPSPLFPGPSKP

Turning to Recombinant human MMP-13, in data set [1], the “fluorescence from cleavage of quenched fluorogenic peptide” value was “MMP-13 also cleaves the stalk domain, but at a much lower rate and efficiency than MMP-2”; the “fluorescence from cleavage of quenched fluorogenic peptide (2.5 µM peptide, 30 ng enzyme)” value is on record as “both enzymes efficiently cleaved the WT peptide”; the “fluorescence from cleavage of quenched fluorogenic peptide, titration of protease” value is “the cleavage of the peptide was dose dependent”. For the same substance, in data set [2], the “intact peptide by anti-Myc ELISA (25 and 50 ng enzyme, 5 hours)” value is “the WT peptide was cleaved in a dose dependent manner”. For the same substance, the “fluorescence from cleavage of quenched fluorogenic peptide (2.5 µM peptide, 30 ng enzyme)” value in data set [3] is listed as “both were completely incapable of cleaving the mutant peptide”.

The record behind these values is patent US20260209355.
